Laboratory results published in patent US20240158517A1 (HIFIBIO HK, published 2024).
Read-outs that look alike come from different tables or passages of the source.

Assays:
[1] = molecular target: T1, human CXCR5 (human, UniProt P32302 1-372); experiment: binding to hCXCR5, Exp 2 (assay not given)
T1 construct: whole, on cells; Always presented on cells; one entry is used for all cell lines; also called hCXCR5; C-X-C chemokine receptor type 5
T1 sequence (looked up): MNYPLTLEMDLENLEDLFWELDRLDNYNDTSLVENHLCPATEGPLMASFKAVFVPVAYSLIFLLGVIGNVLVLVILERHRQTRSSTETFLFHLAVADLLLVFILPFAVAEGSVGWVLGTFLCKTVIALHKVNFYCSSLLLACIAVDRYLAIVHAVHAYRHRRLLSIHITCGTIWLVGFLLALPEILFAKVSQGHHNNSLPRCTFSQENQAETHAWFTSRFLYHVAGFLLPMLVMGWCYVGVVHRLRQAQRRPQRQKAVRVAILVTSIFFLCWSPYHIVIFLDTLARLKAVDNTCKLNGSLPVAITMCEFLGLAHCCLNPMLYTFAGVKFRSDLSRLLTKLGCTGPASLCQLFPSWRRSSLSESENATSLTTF

[2] = molecular target: T1, human CXCR5; experiment: binding to hCXCR5, Exp 1 (assay not given)
[3] = molecular target: CD16 (UniProt P08637 17-254, limits assumed); experiment: cell-based or functional assay
[4] = molecular target: T2, murine CXCR5 (mouse, UniProt Q04683 1-374); experiment: flow cytometry on cells transiently transfected with murine CXCR5
T2 construct: whole, on cells; also called mouse CXCR5 ortholog
T2 sequence (looked up): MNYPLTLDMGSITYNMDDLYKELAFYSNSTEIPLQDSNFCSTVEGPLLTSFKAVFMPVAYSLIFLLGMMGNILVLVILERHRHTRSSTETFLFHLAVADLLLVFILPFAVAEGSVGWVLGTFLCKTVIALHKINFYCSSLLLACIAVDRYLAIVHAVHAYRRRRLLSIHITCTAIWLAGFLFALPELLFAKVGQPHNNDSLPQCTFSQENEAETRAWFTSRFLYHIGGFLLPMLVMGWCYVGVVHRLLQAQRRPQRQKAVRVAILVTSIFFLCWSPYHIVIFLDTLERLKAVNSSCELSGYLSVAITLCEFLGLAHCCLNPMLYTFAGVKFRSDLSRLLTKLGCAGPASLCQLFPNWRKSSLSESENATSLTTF

[5] = molecular target: T3, human CXCR3 (human, UniProt P49682 1-368, limits assumed); experiment: flow cytometry (MFI) on hCXCR3
T3 construct: also called hCXCR3
T3 sequence (looked up): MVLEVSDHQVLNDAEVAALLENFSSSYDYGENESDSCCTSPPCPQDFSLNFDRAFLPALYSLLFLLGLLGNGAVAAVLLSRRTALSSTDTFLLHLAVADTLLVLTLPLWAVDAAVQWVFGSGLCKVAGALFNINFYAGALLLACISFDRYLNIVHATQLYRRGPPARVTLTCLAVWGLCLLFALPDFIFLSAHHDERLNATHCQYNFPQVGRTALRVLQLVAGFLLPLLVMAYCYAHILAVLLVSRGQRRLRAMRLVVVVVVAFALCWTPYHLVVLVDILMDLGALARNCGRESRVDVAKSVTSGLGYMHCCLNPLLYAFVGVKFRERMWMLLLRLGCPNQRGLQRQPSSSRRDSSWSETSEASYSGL

[6] = molecular target: T4, cynomolgus CXCR5 (cynomolgus monkey, UniProt G8F5K4 1-372); experiment: flow cytometry on cells transiently transfected with cynomolgus CXCR5
T4 construct: whole, on cells; also called monkey CXCR5 ortholog
T4 sequence: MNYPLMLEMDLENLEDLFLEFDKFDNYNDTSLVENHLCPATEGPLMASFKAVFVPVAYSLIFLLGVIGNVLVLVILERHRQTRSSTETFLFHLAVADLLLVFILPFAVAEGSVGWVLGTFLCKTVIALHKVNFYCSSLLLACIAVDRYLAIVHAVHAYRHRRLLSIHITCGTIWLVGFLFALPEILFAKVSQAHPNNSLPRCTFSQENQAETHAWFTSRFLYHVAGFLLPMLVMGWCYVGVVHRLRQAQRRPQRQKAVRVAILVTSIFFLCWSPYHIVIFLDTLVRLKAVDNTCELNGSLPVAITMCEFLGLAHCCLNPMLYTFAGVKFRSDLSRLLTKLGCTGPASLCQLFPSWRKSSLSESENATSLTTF

[7] = molecular target: T1, human CXCR5; experiment: flow cytometry on an adherent stable cell line expressing hCXCR5, MFI normalized on the benchmark MFI
Experimental: In order to test the binding capacity to CXCR5, six chimeric monoclonal antibodies were tested in binding assay using adherent stable cell line expressing the target antigen hCXCR5.

[8] = molecular target: T1, human CXCR5
[9] = molecular target: T1, human CXCR5; experiment: flow cytometry on adherent DX002 cells expressing CXCR5, MFI
[10] = molecular target: T1, human CXCR5; experiment: binding to DX002 cells expressing CXCR5
[11] = molecular target: T1, human CXCR5; experiment: cell-based or functional assay
[12] = molecular target: T1, human CXCR5; experiment: flow cytometry on DX002 cells expressing CXCR5, MFI
[13] = molecular target: T3, human CXCR3; experiment: specificity assay by flow cytometry
[14] = molecular target: T2, murine CXCR5; experiment: flow cytometry, transiently transfected cells
[15] = molecular target: T1, human CXCR5; experiment: flow cytometry on CXCR5+ Raji cells, MFI

CD16, sequence (P08637 17-254 limits assumed): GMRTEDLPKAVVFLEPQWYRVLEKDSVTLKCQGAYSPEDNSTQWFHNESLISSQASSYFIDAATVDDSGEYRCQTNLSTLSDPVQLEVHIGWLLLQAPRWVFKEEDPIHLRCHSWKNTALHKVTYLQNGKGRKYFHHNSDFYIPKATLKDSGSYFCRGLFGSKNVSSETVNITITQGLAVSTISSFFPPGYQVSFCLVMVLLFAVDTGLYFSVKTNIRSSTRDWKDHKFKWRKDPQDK

B1: HFB2-4hz9-hG1DE (antibody, V domains shown)
VH: QVQLQESGPGLVKPSETLSLTCTVSGFSLTSYGVSWVRQPPGKGLEWIGVIWGDGSTNYNPSLKSRVTISKDTSKNQVSLKLSSVTAADTAVYYCARVVYWGQGTLVTVSS
VL: DIVMTQSPLSLPVTPGEPASISCRSSKSLLHSNGKTYLYWFLQKPGQSPQLLIYRMSNLASGVPDRFSGSGSGTDFTLKISRVEAEDVGVYYCMQHLEYPYTFGGGTKVEIK
notes: Humanized (VH3/VL1), human IgG1 constant region with S239D/I332E (hG1DE)
With B1 the EC50 [1] was 1 nM, the EC50 [2] was 1.3 nM and the “ADCC activity, EC50” value [3] was 1 to 2 pM.

B2: HFB2-2-hG1 (antibody, V domains shown)
VH: EVQLVETGGGLVQPKGSLKLSCAASGFTFNTNAMNWVRQAPGKGLEWVARIRSKSNNYATHYVDSVKDRFTISRDDSQSMLYLQMNNLKTEDTAMYYCVSWDPFAYWGQGTLVTVSA
VL: NIMMTQSPSSLAVSAGEKVTMSCKSSQSVLYSSNQKNYLAWYQQKPGQSPKLLIYWASTRASGVPDRFTGSGSGTDFTLTISSVQTEDLAVYYCHQYLSSWTFGGGAKLEIK
notes: Mouse-human chimeric antibody, human IgG1 constant region
B2: no binding (tested: about 150 nM) [4]; no binding (tested: about 150 nM) [5]; no binding (tested: about 150 nM) [6]. The EC50 [7] was 0.482 nM.

B3: HFB2-3-hG1 (antibody, V domains shown)
VH: QVQLKQSGPGLVQPSQSLSITCTVSGFSLTSYGVHWVRQSPGKGLEWLGVTWSGGRTDYNAAFISRLSINKDNSKSQVFFKMNSLQVNDTAIYYCARGGNYWGQGTSVTVSS
VL: not shown
notes: as for B2
With B3 the binding result [4] was “no binding (tested: about 150 nM)”, the EC50 [8] was 0.569 nM and the binding result [5] was “no binding (tested: about 150 nM)”. B3: no binding (tested: about 150 nM) [6].

B4: HFB2-4hG1DE (antibody, V domains shown)
VH: QVQLKESGPGLVAPSQSLSITCTVSGFSLTSYGVSWVRQPPGKGLEWLGVIWGDGSTNYHSGLISRLSISKDNSKSQVFLKLNSLQSDDTATYYCARVVYWGQGTLVTVSA
VL: DIVMTQAAPSVPVTPGESISISCRSSKSLLHSNGKTYLYWFLQRPGQSPQLLLYRMSNLASGVPDRFSGSGSGTAFTLRISRVEAEDVGVYYCMQHLEYPYTFGGGTKLEIK
notes: Chimeric HFB2-4 in the DE scaffold: human IgG1 constant region with S239D/I332E; also called HFB2-4DE
B4 gave an EC50 [1] of 1.3 nM, an EC50 [2] of 1 nM and an EC50 [9] of 0.112 nM. The EC50 [10] was 0.186 nM, the “ADCC lysis of Raji cells by primary NK cells, EC50” value [11] was 0.76 pM and the “ADCC lysis of peripheral primary B cells by primary NK cells, EC50” value [11] was 0.44 fM.

B5: afucosylated HFB2-4hG1 (antibody, V domains shown)
VH: QVQLKESGPGLVAPSQSLSITCTVSGFSLTSYGVSWVRQPPGKGLEWLGVIWGDGSTNYHSGLISRLSISKDNSKSQVFLKLNSLQSDDTATYYCARVVYWGQGTLVTVSA
VL: DIVMTQAAPSVPVTPGESISISCRSSKSLLHSNGKTYLYWFLQRPGQSPQLLLYRMSNLASGVPDRFSGSGSGTAFTLRISRVEAEDVGVYYCMQHLEYPYTFGGGTKLEIK
modifications: afucosylated (no core fucose on the Fc N-glycan of the heavy chain)
notes: Afucosylated format of the chimeric HFB2-4hG1 (human IgG1, no DE mutation); also called afu-HFB2-4hG1; AfuHFB2-4hG1
Work on B5 yielded an EC50 [12] of 0.81 nM.

B6: HFB2-5-hG1 (antibody, V domains shown)
VH: QVQLKESGPGLVAPSQSLSITCTVSGFSLTSYGVSWVRQPPGKGLEWLGVIWGDGSTNYHSTLISRLSISKDNSKSQVFLKLNSLQTDDTATYYCARVAYWGQGTLVTVSA
VL: DIVMTQAAPSIPVTPGESVSISCRSSKSLLHSNGKTYLYWFLQRPGQSPQLLIYRMSNLASGVPDRFSGSGSGTAFTLRISRVEAEDVGVYYCMQHLEYPYTFGGGTKLEIK
notes: as for B2
B6: no binding [13]; no binding [14]; no binding (tested: about 150 nM) [6]. For the same binder, the EC50 [7] was 3.43 nM.

B7: HFB2-1-hG1 (antibody, V domains shown)
VH: EVKLEESGGGLVQPGGSMKLSCVASGFTFSNYWMNWVRQSPEKGLEWVAQIRLKSDNYATHYTESVKGRFTISRDDSKSSVYLQMNNLRAEDTGIYYCTPPNFDYWGQGTTLTVSS
VL: DIVMTQAAPSVTVTPGESVTISCRSTTSLLHRSGKHKFYWFLQRPGQSPQLLIYYVSNLASGVPDRFSGSGSGTDFTLRISRVEAEDFGVYYCMQSLEFPLTFGTGTKLEIK
notes: Mouse-human chimeric antibody: murine VH and VL on the human IgG1 constant region
B7: no binding (tested: about 150 nM) [4]; no binding (tested: about 150 nM) [5]; no binding (tested: about 150 nM) [6]. It also gave an EC50 [7] of 0.481 nM.

B8: afucosylated HFB2-4hz42-hG1 (antibody, V domains shown)
VH: QVQLVQSGAEVKKPGASVKVSCKASGFSLTSYGVSWVRQAPGQGLEWMGVIWGDGSTNYAQKLQGRVTMTKDTSTSTAYMELRSLRSDDTAVYYCARVVYWGQGTLVTVSS
VL: EIVMTQSPATLSVSPGERATLSCRSSKSLLHSNGKTYLYWFQQKPGQAPRLLIYRMSNLASGIPARFSGSGSGTEFTLTISSVQSEDVAVYYCMQHLEYPYTFGQGTKLEIK
modifications: afucosylated (no core fucose on the Fc N-glycan of the heavy chain)
notes: Afucosylated format of humanized HFB2-4hz42-hG1 (human IgG1); also called afu-HFB2-4hz42-hG1; Afu-HFB2-4hz42-hG1
In the case of B8, the EC50 [12] is reported as 0.82 nM.

B9: HFB2-4hz42hG1 (antibody, V domains shown)
VH: QVQLVQSGAEVKKPGASVKVSCKASGFSLTSYGVSWVRQAPGQGLEWMGVIWGDGSTNYAQKLQGRVTMTKDTSTSTAYMELRSLRSDDTAVYYCARVVYWGQGTLVTVSS
VL: EIVMTQSPATLSVSPGERATLSCRSSKSLLHSNGKTYLYWFQQKPGQAPRLLIYRMSNLASGIPARFSGSGSGTEFTLTISSVQSEDVAVYYCMQHLEYPYTFGQGTKLEIK
notes: Humanized, human IgG1 (hG1); also called HFB2-VH10VL6
For B9, the “EC50 (read off the curve)” value [15] was ~0.3 nM.

B10: HFB2-4hz42hG1DE (antibody, V domains shown)
VH: QVQLVQSGAEVKKPGASVKVSCKASGFSLTSYGVSWVRQAPGQGLEWMGVIWGDGSTNYAQKLQGRVTMTKDTSTSTAYMELRSLRSDDTAVYYCARVVYWGQGTLVTVSS
VL: EIVMTQSPATLSVSPGERATLSCRSSKSLLHSNGKTYLYWFQQKPGQAPRLLIYRMSNLASGIPARFSGSGSGTEFTLTISSVQSEDVAVYYCMQHLEYPYTFGQGTKLEIK
notes: Humanized (VH10/VL6) in hG1DE format
B10 gave an EC50 [9] of 0.123 nM and an EC50 [10] of 0.171 nM.
